The text below walks through data of PMC5625035.

The test concerns the target PNKP (UniProt Q96T60). Nature of the test: Ni-NTA co-purification of XRCC1-His complexes, immunoblot. The settings on record: reference: wild-type XRCC1-His; sites S518,T519,T523. Background: A western blot detects proteins with antibodies after separation by electrophoresis.

“XRCC1 (from UniProt P18887) XRCC1-His S518A/T519A/T523A”: the “binding against the reference” value is given as “weaker”.
